Data as given in PMC6589164.

Legend:
[1] = target: pyrene-labelled rabbit skeletal F-actin (rabbit) (UniProt P68135); assay: other fluorescence titration
[2] = target: RLC-depleted porcine cardiac myosin (porcine) (UniProt P79293); assay: co-sedimentation

Row | Kd [1] [µM] | stoichiometry N [1] | Kd [2] [µM] | Molecule
1 | 0.0244 | 0.9 |  | A13T-RLC-reconstituted porcine cardiac myosin (from UniProt P79293 1-1935; P10916 1-166) (complex)
2 | 0.0189 | 0.8 |  | WT-RLC-reconstituted porcine cardiac myosin (from UniProt P79293 1-1935; P10916 1-166) (complex)
3 |  |  | 2.92 | recombinant human cardiac (ventricular) myosin regulatory light chain, wild type (natural protein) MAPKKAKKRAGGANSNVFSMFEQTQIQEFKEAFTIMDQNRDGFIDKNDLRDTFAALGRVNVKNEEIDEMIKEAPGPINFTVFLTMFGEKLKGADPEETILNAFKVFDPEGKGVLKADYVREMLTTQAERFSKEEVDQMFAAFPPDVTGNLDYKNLVHIITHGEEKD
4 |  |  | 8.14 | recombinant human cardiac (ventricular) myosin regulatory light chain, A13T mutant (natural protein) MAPKKAKKRAGGTNSNVFSMFEQTQIQEFKEAFTIMDQNRDGFIDKNDLRDTFAALGRVNVKNEEIDEMIKEAPGPINFTVFLTMFGEKLKGADPEETILNAFKVFDPEGKGVLKADYVREMLTTQAERFSKEEVDQMFAAFPPDVTGNLDYKNLVHIITHGEEKD
